Laboratory results as given in publication PMC8752480 (Journal of molecular biology, 2021).

B1: hexon (major capsid protein) of HAdV-C5 in the Ad5F35-ts1 virion (natural protein)
chain: MATPSMMPQWSYMHISGQDASEYLSPGLVQFARATETYFSLNNKFRNPTVAPTHDVTTDRSQRLTLRFIPVDREDTAYSYKARFTLAVGDNRVLDMASTYFDIRGVLDRGPTFKPYSGTAYNALAPKGAPNPCEWDEAATALEINLEEEDDDNEDEVDEQAEQQKTHVFGQAPYSGINITKEGIQIGVEGQTPKYADKTFQPEPQIGESQWYETEINHAAGRVLKKTTPMKPCYGSYAKPTNENGGQGILVKQQNGKLESQVEMQFFSTTEATAGNGDNLTPKVVLYSEDVDIETPDTHISYMPTIKEGNSRELMGQQSMPNRPNYIAFRDNFIGLMYYNSTGNMGVLAGQASQLNAVVDLQDRNTELSYQLLLDSIGDRTRYFSMWNQAVDSYDPDVRIIENHGTEDELPNYCFPLGGVINTETLTKVKPKTGQENGWEKDATEFSDKNEIRVGNNFAMEINLNANLWRNFLYSNIALYLPDKLKYSPSNVKISDNPNTYDYMNKRVVAPGLVDCYINLGARWSLDYMDNVNPFNHHRNAGLRYRSMLLGNGRYVPFHIQVPQKFFAIKNLLLLPGSYTYEWNFRKDVNMVLQSSLGNDLRVDGASIKFDSICLYATFFPMAHNTASTLEAMLRNDTNDQSFNDYLSAANMLYPIPANATNVPISIPSRNWAAFRGWAFTRLKTKETPSLGSGYDPYYTYSGSIPYLDGTFYLNHTFKKVAITFDSSVSWPGNDRLLTPNEFEIKRSVDGEGYNVAQCNMTKDWFLVQMLANYNIGYQGFYIPESYKDRMYSFFRNFQPMSRQVVDDTKYKDYQQVGILHQHNNSGFVGYLAPTMREGQAYPANFPYPLIGKTAVDSITQKKFLCDRTLWRIPFSSNFMSMGALTDLGQNLLYANSAHALDMTFEVDPMDEPTLLYVLFEVFDVVRVHRPHRGVIETVYLRTPFSAGNATT

How the values were obtained:
[1] = target: B1; assay: […]
[…] = target: the molecule itself; assay: […]

Binder	binding result [1]	binding result ([…])
penton base of HAdV-C5 in the Ad5F35-ts1 virion (natural protein) MRRAAMYEEGPPPSYESVVSAAPVAAALGSPFDAPLDPPFVPPRYLRPTGGRNSIRYSELAPLFDTTRVYLVDNKSTDVASLNYQNDHSNFLTTVIQNNDYSPGEASTQTINLDDRSHWGGDLKTILHTNMPNVNEFMFTNKFKARVMVSRLPTKDNQVELKYEWVEFTLPEGNYSETMTIDLMNNAIVEHYLKVGRQNGVLESDIGVKFDTRNFRLGFDPVTGLVMPGVYTNEAFHPDIILLPGCGVDFTHSRLSNLLGIRKRQPFQEGFRITYDDLEGGNIPALLDVDAYQASLKDDTEQGGGGAGGSNSSGSGAEENSNAAAAAMQPVEDMNDHAIRGDTFATRAEEKRAEAEAAAEAAAPAAQPEVEKPQKKPVIKPLTEDSKKRSYNLISNDSTFTQYRSWYLAYNYGDPQTGIRSWTLLCTPDVTCGSEQVYWSLPDMMQDPVTFRSTRQISNFPVVGAELLPVHSKSFYNDQAVYSQLIRQFTSLTHVFNRFPENQILARPPAPTITTVSENVPALTDHGTLPLRNSIGGVQRVTITDARRRTCPYVYKALGIVSPRVLSSRTF	binds	binds
precursor of protein VI (pVI) of HAdV-C5 in the Ad5F35-ts1 virion (natural protein) MEDINFASLAPRHGSRPFMGNWQDIGTSNMSGGAFSWGSLWSGIKNFGSTVKNYGSKAWNSSTGQMLRDKLKEQNFQQKVVDGLASGISGVVDLANQAVQNKINSKLDPRPPVEEPPPAVETVSPEGRGEKRPRPDREETLVTQIDEPPSYEEALKQGLPTTRPIAPMATGVLGQHTPVTLDLPPPADTQQKPVLPGPTAVVVTRPSRASLRRAASGPRSLRPVASGNWQSTLNSIVGLGVQSLKRRRCF	binds	–
protein IX of HAdV-C5 in the Ad5F35-ts1 virion (natural protein) MSTNSFDGSIVSSYLTTRMPPWAGVRQNVMGSSIDGRPVLPANSTTLTYETVSGTPLETAASAAASAAAATARGIVTDFAFLSPLASSAASRSSARDDKLTALLAQLDSLTRELNVVSQQLLDLRQQVSALKASSPPNAV	binds	–
B1	–	binds
precursor of protein IIIa (pIIIa) of HAdV-C5 in the Ad5F35-ts1 virion (natural protein) MMQDATDPAVRAALQSQPSGLNSTDDWRQVMDRIMSLTARNPDAFRQQPQANRLSAILEAVVPARANPTHEKVLAIVNALAENRAIRPDEAGLVYDALLQRVARYNSGNVQTNLDRLVGDVREAVAQRERAQQQGNLGSMVALNAFLSTQPANVPRGQEDYTNFVSALRLMVTETPQSEVYQSGPDYFFQTSRQGLQTVNLSQAFKNLQGLWGVRAPTGDRATVSSLLTPNSRLLLLLIAPFTDSGSVSRDTYLGHLLTLYREAIGQAHVDEHTFQEITSVSRALGQEDTGSLEATLNYLLTNRRQKIPSLHSLNSEEERILRYVQQSVSLNLMRDGVTPSVALDMTARNMEPGMYASNRPFINRLMDYLHRAAAVNPEYFTNAILNPHWLPPPGFYTGGFEVPEGNDGFLWDDIDDSVFSPQPQTLLELQQREQAEAALRKESFRRPSSLSDLGAAAPRSDASSPFPSLIGSLTSTRTTRPRLLGEEEYLNNSLLQPQREKNLPPAFPNNGIESLVDKMSRWKTYAQEHRDVPGPRPPTRRQRHDRQRGLVWEDDDSADDSSVLDLGGSGNPFAHLRPRLGRMF	binds	binds
precursor of protein VIII (pVIII) of HAdV-C5 in the Ad5F35-ts1 virion (natural protein) MSKEIPTPYMWSYQPQMGLAAGAAQDYSTRINYMSAGPHMISRVNGIRAHRNRILLEQAAITTTPRNNLNPRSWPAALVYQESPAPTTVVLPRDAQAEVQMTNSGAQLAGGFRHRVRSPGQGITHLTIRGRGIQLNDESVSSSLGLRPDGTFQIGGAGRPSFTPRQAILTLQTSSSEPRSGGIGTLQFIEEFVPSVYFNPFSGPPGHYPDQFIPNFDAVKDSADGYD	binds	–
